This is an account of results in the FLAb antibody collection (doi:10.7554/elife.23156).

B1: scFv; the commonest letter at each place (parent)
chain 1: EVKLDETGGGLVQPGRPMKLSCVASGFTFSDYWMNWVRQSPEKGLEWVAQIRNKPYNYETYYSDSVKGRFTISRDDSKSSVYLQMNNLRVEDMGIYYCTGSYYGMDYWGQGTSVTVS
chain 2: DVVMTQTPLSLPVSLGDQASISCRSSQSLVHSNGNTYLRWYLQKPGQSPKVLIYKVSNRFSGVPDRFSGSGSGTDFTLKISRVEAEDLGVYFCSQSTHVPWTFGGGTKLEIK

The variants in series [1] derive from B1. The experiment in a line: Kd (Tite-Seq). The conditions noted are these: with fluorescein; format: scFv 4-4-20, heavy + light.
The variants in series [2] derive from B1. The series is described as follows: yeast surface expression (ratio to wild type); higher = more expressed. The following applies: format: scFv 4-4-20, heavy + light.

For orientation: Kd means the free concentration of one partner at which half of the binding sites on the other are occupied at equilibrium, for simple one-to-one binding. For the variant chain 1 G104E W108G, the Kd in series [1] was not below 10 µM. Also, the yeast surface expression in series [2] amounted to 0.296.

Consider chain 1 G104E W108S, for which the Kd in series [1] is not below 10 µM. Besides, the yeast surface expression in series [2] was 0.331.

Take chain 1 G104V M105E: the Kd in series [1] is not below 10 µM. For the same variant, the yeast surface expression in series [2] came to 0.637.

On to chain 1 G104R G109C, for which the Kd in series [1] was not below 10 µM. The yeast surface expression in series [2] stood at 0.5.

chain 1 G104K W108Q: in series [1], the Kd is not below 10 µM. Further, the yeast surface expression in series [2] was determined as 0.294.

Consider chain 1 G100W G104L W108M, for which the Kd in series [1] is not below 10 µM. Besides, in series [2], the yeast surface expression came to 0.108.

Turning to chain 1 G100Y W108L, the dissociation constant (Kd) in series [1] was not below 10 µM. Also, the yeast surface expression in series [2] came out at 0.393.

For the variant chain 1 G104I G109K, the Kd in series [1] is not below 10 µM. Further, the yeast surface expression in series [2] is 0.246.

Turning to chain 1 G100V S101I, the Kd in series [1] is not below 10 µM. For the same variant, the yeast surface expression in series [2] amounted to 0.653.

Consider chain 1 G100V S101N, for which, in series [1], the Kd is not below 10 µM. Moreover, in series [2], the yeast surface expression worked out at 0.787.

With chain 1 G100V S101M, in series [1], the Kd was not below 10 µM. The yeast surface expression in series [2] worked out at 0.712.

For the variant chain 1 G100V S101H, the Kd in series [1] is not below 10 µM. Further, the yeast surface expression in series [2] was determined as 0.872.

In the case of chain 1 G100T, the Kd in series [1] was found to be 0.921 µM. The yeast surface expression in series [2] came to 0.994.

Take chain 1 G100V: in series [1], the Kd was not below 10 µM. In series [2], the yeast surface expression worked out at 0.97.

As to chain 1 G100Y, the dissociation constant Kd in series [1] was not below 10 µM. Also, the yeast surface expression in series [2] worked out at 0.606.

chain 1 G100W: the Kd in series [1] is not below 10 µM. In series [2], the yeast surface expression was 0.491.

chain 1 G104T Y107I W108Y: in series [1], the Kd was not below 10 µM. Besides, the yeast surface expression in series [2] stood at 0.224.

chain 1 G104R D106M: the Kd in series [1] is not below 10 µM. Moreover, the yeast surface expression in series [2] is 0.275.

chain 1 G104R Y107R: the Kd in series [1] was not below 10 µM. The yeast surface expression in series [2] worked out at 0.263.

Regarding chain 1 G104R Y107W, the Kd in series [1] is not below 10 µM. The yeast surface expression in series [2] turned out to be 0.257.

With chain 1 G104W G109R, the Kd in series [1] is not below 10 µM. Further, the yeast surface expression in series [2] was 0.171.

With chain 1 G104W G109E, the Kd in series [1] was not below 10 µM. Besides, in series [2], the yeast surface expression is 0.167.

Regarding chain 1 G100W S101P D106M, the Kd in series [1] was not below 10 µM. For the same variant, in series [2], the yeast surface expression worked out at 0.186.

chain 1 G100T Y103E: in series [1], the dissociation constant Kd was not below 10 µM. Besides, in series [2], the yeast surface expression amounted to 1.28.

As to chain 1 G100T D106A, the Kd in series [1] was not below 10 µM. In addition, the yeast surface expression in series [2] was determined as 0.704.

On to chain 1 G100T D106V, for which the Kd in series [1] is not below 10 µM. For the same variant, the yeast surface expression in series [2] turned out to be 0.468.

Turning to chain 1 G104H Y107M, in series [1], the Kd is not below 10 µM. Also, the yeast surface expression in series [2] amounted to 0.478.

As to chain 1 G104H Y107R, the Kd in series [1] is not below 10 µM. Besides, the yeast surface expression in series [2] amounted to 0.518.

As for chain 1 G104V Y107K, in series [1], the dissociation constant (Kd) was not below 10 µM. In addition, the yeast surface expression in series [2] amounted to 0.324.

With chain 1 G104V Y107I, in series [1], the Kd is not below 10 µM. In series [2], the yeast surface expression amounted to 0.443.

In the case of chain 1 G104K Y107N, in series [1], the Kd is not below 10 µM. The yeast surface expression in series [2] stood at 0.424.

Turning to chain 1 G104S W108E, in series [1], the Kd is not below 10 µM. In series [2], the yeast surface expression worked out at 0.198.

chain 1 G104S W108S: the Kd in series [1] is not below 10 µM. In series [2], the yeast surface expression was 0.304.

For the variant chain 1 G104S W108R, the Kd in series [1] is not below 10 µM. In series [2], the yeast surface expression came out at 0.26.

On to chain 1 G100S M105Q D106N, for which, in series [1], the Kd was not below 10 µM. In addition, in series [2], the yeast surface expression amounted to 0.522.

As to chain 1 G104N D106W, the Kd in series [1] was not below 10 µM. The yeast surface expression in series [2] came out at 0.316.

For the variant chain 1 G104E G109Y, the Kd in series [1] is not below 10 µM. The yeast surface expression in series [2] worked out at 0.384.

chain 1 G104E G109C: in series [1], the Kd is not below 10 µM. Also, the yeast surface expression in series [2] turned out to be 0.21.

For the variant chain 1 G104A D106T, in series [1], the Kd was not below 10 µM. In series [2], the yeast surface expression was 0.78.

In the case of chain 1 G104A D106K, in series [1], the dissociation constant (Kd) is not below 10 µM. Besides, in series [2], the yeast surface expression turned out to be 0.362.

Turning to chain 1 G104A D106Q, the Kd in series [1] was not below 10 µM. For the same variant, in series [2], the yeast surface expression turned out to be 0.575.

In the case of chain 1 G104V M105R G109W, in series [1], the Kd is not below 10 µM. Besides, in series [2], the yeast surface expression was 0.425.

In the case of chain 1 G104Y M105N, in series [1], the Kd is not below 10 µM. Moreover, the yeast surface expression in series [2] worked out at 1.13.

With chain 1 G104Y M105L, in series [1], the Kd was not below 10 µM. Moreover, in series [2], the yeast surface expression stood at 0.44.

Take chain 1 G104T G109D: in series [1], the equilibrium dissociation constant (Kd) is not below 10 µM. For the same variant, the yeast surface expression in series [2] was found to be 0.235.

Take chain 1 G104T G109L: in series [1], the Kd is not below 10 µM. The yeast surface expression in series [2] came out at 0.241.

Take chain 1 G104T W108F: the Kd in series [1] is not below 10 µM. Further, the yeast surface expression in series [2] is 0.329.

For chain 1 G104T W108A, the Kd in series [1] was not below 10 µM. For the same variant, in series [2], the yeast surface expression was found to be 0.326.

As for chain 1 G100T G104V D106E, the Kd in series [1] was not below 10 µM. Besides, in series [2], the yeast surface expression was 0.398.

Consider chain 1 G104N W108M G109E, for which the Kd in series [1] was not below 10 µM. In addition, the yeast surface expression in series [2] was 0.217.

As for chain 1 G104E M105V, the Kd in series [1] is not below 10 µM. In addition, the yeast surface expression in series [2] is 0.886.

Regarding chain 1 G100V D106Q, the Kd in series [1] is not below 10 µM. Further, the yeast surface expression in series [2] was determined as 0.639.

Turning to chain 1 G100S G104W, the Kd in series [1] was not below 10 µM. The yeast surface expression in series [2] was determined as 0.425.

Consider chain 1 G104Q M105C, for which the Kd in series [1] was not below 10 µM. Also, the yeast surface expression in series [2] turned out to be 0.62.

Consider chain 1 G104I M105S, for which, in series [1], the Kd is not below 10 µM. The yeast surface expression in series [2] is 0.592.

With chain 1 G100S M105I, in series [1], the Kd is not below 10 µM. In addition, the yeast surface expression in series [2] came to 0.943.

As for chain 1 G100S M105R, the Kd in series [1] turned out to be 0.311 µM. Besides, the yeast surface expression in series [2] is 0.929.
